One variant from IntAct's records for PubMed 9845372 can be followed below.

First the molecules themselves.
B1: Double-strand break repair protein MRE11 (Saccharomyces cerevisiae), P32829 (parent)
chain: MDYPDPDTIRILITTDNHVGYNENDPITGDDSWKTFHEVMMLAKNNNVDMVVQSGDLFHVNKPSKKSLYQVLKTLRLCCMGDKPCELELLSDPSQVFHYDEFTNVNYEDPNFNISIPVFGISGNHDDASGDSLLCPMDILHATGLINHFGKVIESDKIKVVPLLFQKGSTKLALYGLAAVRDERLFRTFKDGGVTFEVPTMREGEWFNLMCVHQNHTGHTNTAFLPEQFLPDFLDMVIWGHEHECIPNLVHNPIKNFDVLQPGSSVATSLCEAEAQPKYVFILDIKYGEAPKMTPIPLETIRTFKMKSISLQDVPHLRPHDKDATSKYLIEQVEEMIRDANEETKQKLADDGEGDMVAELPKPLIRLRVDYSAPSNTQSPIDYQVENPRRFSNRFVGRVANGNNVVQFYKKRSPVTRSKKSGINGTSISDRDVEKLFSESGGELEVQTLVNDLLNKMQLSLLPEVGLNEAVKKFVDKDEKTALKEFISHEISNEVGILSTNEEFLRTDDAEEMKALIKQVKRANSVRPTPPKENDETNFAFNGNGLDSFRSSNREVRTGSPDITQSHVDNESRITHISQAESSKPTSKPKRVRTATKKKIPAFSDSTVISDAENELGDNNDAQDDVDIDENDIIMVSTDEEDASYGLLNGRKTKTKTRPAASTKTASRRGKGRASRTPKTDILGSLLAKKRK
partner: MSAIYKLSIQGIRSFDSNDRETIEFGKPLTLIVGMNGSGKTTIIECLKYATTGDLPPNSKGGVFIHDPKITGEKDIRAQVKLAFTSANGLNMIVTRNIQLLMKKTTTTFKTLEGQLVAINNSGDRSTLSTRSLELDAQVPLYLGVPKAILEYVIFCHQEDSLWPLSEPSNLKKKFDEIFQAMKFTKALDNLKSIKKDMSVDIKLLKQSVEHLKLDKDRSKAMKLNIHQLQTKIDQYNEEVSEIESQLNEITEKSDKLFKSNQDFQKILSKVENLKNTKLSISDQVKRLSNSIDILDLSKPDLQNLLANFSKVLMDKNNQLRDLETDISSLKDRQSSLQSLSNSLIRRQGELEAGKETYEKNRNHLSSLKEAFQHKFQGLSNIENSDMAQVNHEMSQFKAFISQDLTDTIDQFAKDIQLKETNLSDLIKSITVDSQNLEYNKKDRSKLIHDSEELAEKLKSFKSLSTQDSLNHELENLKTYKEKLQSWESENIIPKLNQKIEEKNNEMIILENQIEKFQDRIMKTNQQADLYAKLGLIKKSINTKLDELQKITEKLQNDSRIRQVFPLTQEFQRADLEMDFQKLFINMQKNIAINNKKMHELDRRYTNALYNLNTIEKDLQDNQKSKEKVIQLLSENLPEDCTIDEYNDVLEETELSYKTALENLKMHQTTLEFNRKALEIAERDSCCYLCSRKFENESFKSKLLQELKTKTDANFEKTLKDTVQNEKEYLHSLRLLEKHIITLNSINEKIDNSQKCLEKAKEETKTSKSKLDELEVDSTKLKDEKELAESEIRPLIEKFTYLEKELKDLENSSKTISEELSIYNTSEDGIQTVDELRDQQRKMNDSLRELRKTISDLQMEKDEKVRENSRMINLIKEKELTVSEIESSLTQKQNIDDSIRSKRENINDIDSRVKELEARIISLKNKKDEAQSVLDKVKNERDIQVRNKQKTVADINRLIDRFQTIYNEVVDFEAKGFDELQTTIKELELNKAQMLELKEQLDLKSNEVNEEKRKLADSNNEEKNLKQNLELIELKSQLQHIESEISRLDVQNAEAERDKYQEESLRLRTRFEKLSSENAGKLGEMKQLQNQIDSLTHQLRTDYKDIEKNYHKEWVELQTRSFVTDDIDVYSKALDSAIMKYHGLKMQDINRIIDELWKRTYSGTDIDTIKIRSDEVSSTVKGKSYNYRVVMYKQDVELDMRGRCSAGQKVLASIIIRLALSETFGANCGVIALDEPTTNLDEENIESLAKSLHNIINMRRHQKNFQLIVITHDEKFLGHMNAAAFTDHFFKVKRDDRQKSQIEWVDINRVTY

Variants of B1 are the subject of this test. The settings on record: with rad50_yeast RAD50, P12753.
Turning to H213Y;L225I, the “effect of a mutation on the interaction” value is given as “disrupting interaction”.
